Measured values from the supplement of paper PMC11316812.
± gives the standard deviation of the averaged measurements.

Key:
[1] = tested on: MCF7; assay: percentage of EdU-negative (G0-arrested) nuclei per well, 72 h; higher = more G0 arrest; details: reference: sequence is the full UniProt precursor, the tested protein was the secreted form or ectodomain
[2] = tested on: hTERT-HMEC; assay: as above; details: reference: sequence is the full UniProt precursor, the tested protein was the secreted form or ectodomain
[3] = protein concentration 0.00828571 µM
[4] = protein concentration 0.0828571 µM
[5] = protein concentration 0.0165525 µM
[6] = protein concentration 0.165525 µM
[7] = protein concentration 0.0225 µM
[8] = protein concentration 0.028295 µM
[9] = protein concentration 0.28295 µM
[10] = protein concentration 0.02075 µM
[11] = protein concentration 0.2075 µM
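Note: secreted proteins added to cultured cells, EdU pulse at the end, nuclei found by Hoechst imaging, EdU status from nuclear versus surrounding ring intensity ratio, PBS as neutral control.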

## MAPRTLWSCYLCCLLTAAAGAASYPPRGFSLYTGSSGALSPGGPQAQIAPRPASRHRNWCAYVVTRTVSCVLEDGVETYVKYQPCAWGQPQCPQSIMYRRFLRPRYRVAYKTVTDMEWRCCQGYGGDDCAESPAPALGPASSTPRPLARPARPNLSGSSAGSPLSGLGGEGPGESEKVQQLEEQVQSLTKELQGLRGVLQGLSGRLAEDVQRAVETAFNGRQQPADAAARPGVHETLNEIQHQLQLLDTRVSTHDQELGHLNNHHGGSSSSGGSRAPAPASAPPGPSEELLRQLEQRLQESCSVCLAGLDGFRRQQQEDRERLRAMEKLLASVEERQRHLAGLAVGRRPPQECCSPELGRRLAELERRLDVVAGSVTVLSGRRGTELGGAAGQGGHPPGYTSLASRLSRLEDRFNSTLGPSEEQEESWPGAPGGLSHWLPAARGRLEQLGGLLANVSGELGGRLDLLEEQVAGAMQACGQLCSGAPGEQDSQVSEILSALERRVLDSEGQLRLVGSGLHTVEAAGEARQATLEGLQEVVGRLQDRVDAQDETAAEFTLRLNLTAARLGQLEGLLQAHGDEGCGACGGVQEELGRLRDGVERCSCPLLPPRGPGAGPGVGGPSRGPLDGFSVFGGSSGSALQALQGELSEVILSFSSLNDSLNELQTTVEGQGADLADLGATKDRIISEINRLQQEATEHATESEERFRGLEEGQAQAGQCPSLEGRLGRLEGVCERLDTVAGGLQGLREGLSRHVAGLWAGLRETNTTSQMQAALLEKLVGGQAGLGRRLGALNSSLQLLEDRLHQLSLKDLTGPAGEAGPPGPPGLQGPPGPAGPPGSPGKDGQEGPIGPPGPQGEQGVEGAPAAPVPQVAFSAALSLPRSEPGTVPFDRVLLNDGGYYDPETGVFTAPLAGRYLLSAVLTGHRHEKVEAVLSRSNQGVARVDSGGYEPEGLENKPVAESQPSPGTLGVFSLILPLQAGDTVCVDLVMGQLAHSEEPLTIFSGALLYGDPELEHA [A0A0C4DFX3]
[1]; [3]
  percentage of EdU-negative: 26.3 ± 1.3%
[1]; [4]
  percentage of EdU-negative: 30.4 ± 3.6%
[2]; [3]
  percentage of EdU-negative: 4.9 ± 0.43%
[2]; [4]
  percentage of EdU-negative: 4.36 ± 0.72%

## MTMETQMSQNVCPRNLWLLQPLTVLLLLASADSQAAAPPKAVLKLEPPWINVLQEDSVTLTCQGARSPESDSIQWFHNGNLIPTHTQPSYRFKANNNDSGEYTCQTGQTSLSDPVHLTVLSEWLVLQTPHLEFQEGETIMLRCHSWKDKPLVKVTFFQNGKSQKFSHLDPTFSIPQANHSHSGDYHCTGNIGYTLFSSKPVTITVQVPSMGSSSPMGIIVAVVIATAVAAIVAAVVALIYCRKKRISANSTDPVKAAQFEPPGRQMIAIRKRQLEETNNDYETADGGYMTLNPRAPTDDDKNIYLTLPPNDHVNSNN
[1]; [5]
  percentage of EdU-negative: 26.5 ± 1.3%
[1]; [6]
  percentage of EdU-negative: 25.5 ± 0.26%
[2]; [5]
  percentage of EdU-negative: 4.6 ± 0.053%
[2]; [6]
  percentage of EdU-negative: 5.2 ± 0.11%

## MQCRLPRGLAGALLTLLCMGLLCLRYHLNLSPQRVQGTPELSQPNPGPPKLQLHDVFIAVKTTRAFHRLRLELLLDTWVSRTREQTFVFTDSPDKGLQERLGSHLVVTNCSAEHSHPALSCKMAAEFDTFLASGLRWFCHVDDDNYVNPRALLQLLRAFPLARDVYVGRPSLNRPIHASEPQPHNRTRLVQFWFATGGAGFCINRKLALKMAPWASGSRFMDTSALIRLPDDCTMGYIIECKLGGRLQPSPLFHSHLETLQLLRTAQLPEQVTLSYGVFEGKLNVIKLQGPFSPEEDPSRFRSLHCLLYPDTPWCPQLGAR
[1]; [7]
  percentage of EdU-negative: 25.3 ± 2.3%
[1]; protein concentration 0.225 µM
  percentage of EdU-negative: 29.9 ± 2.4%
[2]; [7]
  percentage of EdU-negative: 5.18 ± 0.59%
[2]; protein concentration 0.225 µM
  percentage of EdU-negative: 11.6 ± 0.88%

## MAWSLGSWLGGCLLVSALGMVPPPENVRMNSVNFKNILQWESPAFAKGNLTFTAQYLSYRIFQDKCMNTTLTECDFSSLSKYGDHTLRVRAEFADEHSDWVNITFCPVDDTIIGPPGMQVEVLADSLHMRFLAPKIENEYETWTMKNVYNSWTYNVQYWKNGTDEKFQITPQYDFEVLRNLEPWTTYCVQVRGFLPDRNKAGEWSEPVCEQTTHDETVPSWMVAVILMASVFMVCLALLGCFALLWCVYKKTKYAFSPRNSLPQHLKEFLGHPHHNTLLFFSFPLSDENDVFDKLSVIAEDSESGKQNPGDSCSLGTPPGQGPQS
[1]; protein concentration 0.034 µM
  percentage of EdU-negative: 24.3 ± 0.92%
[1]; protein concentration 0.34 µM
  percentage of EdU-negative: 26.5 ± 1.1%
[2]; protein concentration 0.034 µM
  percentage of EdU-negative: 5.95 ± 2.1%
[2]; protein concentration 0.34 µM
  percentage of EdU-negative: 7.32 ± 0.51%

## P08572
[1]; protein concentration 0.008 µM
  percentage of EdU-negative: 24.1 ± 2.1%
[1]; protein concentration 0.08 µM
  percentage of EdU-negative: 25.4 ± 0.67%
[2]; protein concentration 0.008 µM
  percentage of EdU-negative: 4.54 ± 0.088%
[2]; protein concentration 0.08 µM
  percentage of EdU-negative: 5.63 ± 0.46%

## MKLAALLGLCVALSCSSAAAFLVGSAKPVAQPVAALESAAEAGAGTLANPLGTLNPLKLLLSSLGIPVNHLIEGSQKCVAELGPQAVGAVKALKALLGALTVFG [Q96QR1]
[1]; [7]
  percentage of EdU-negative: 21.8 ± 1.8%
[1]; protein concentration 0.225 µM
  percentage of EdU-negative: 23.7 ± 1.3%
[2]; [7]
  percentage of EdU-negative: 5.9 ± 0.79%
[2]; protein concentration 0.225 µM
  percentage of EdU-negative: 5.2 ± 0.81%

## MAPPQVLAFGLLLAAATATFAAAQEECVCENYKLAVNCFVNNNRQCQCTSVGAQNTVICSKLAAKCLVMKAEMNGSKLGRRAKPEGALQNNDGLYDPDCDESGLFKAKQCNGTSMCWCVNTAGVRRTDKDTEITCSERVRTYWIIIELKHKAREKPYDSKSLRTALQKEITTRYQLDPKFITSILYENNVITIDLVQNSSQKTQNDVDIADVAYYFEKDVKGESLFHSKKMDLTVNGEQLDLDPGQTLIYYVDEKAPEFSMQGLKAGVIAVIVVVVIAVVAGIVVLVISRKKRMAKYEKAEIKEMGEMHRELNA
[1]; [8]
  percentage of EdU-negative: 26.6 ± 1.3%
[1]; [9]
  percentage of EdU-negative: 26.1 ± 0.38%
[2]; [8]
  percentage of EdU-negative: 4.24 ± 0.27%
[2]; [9]
  percentage of EdU-negative: 7.81 ± 1.4%

## MEPFTNDRLQLPRNMIENSMFEEEPDVVDLAKEPCLHPLEPDEVEYEPRGSRLLVRGLGEHEMEEDEEDYESSAKLLGMSFMNRSSGLRNSATGYRQSPDGACSVPSARTMVVCAFVIVVAVSVIMVIYLLPRCTFTKEGCHKKNQSIGLIQPFATNGKLFPWAQIRLPTAVVPLRYELSLHPNLTSMTFRGSVTISVQALQVTWNIILHSTGHNISRVTFMSAVSSQEKQAEILEYAYHGQIAIVAPEALLAGHNYTLKIEYSANISSSYYGFYGFSYTDESNEKKYFAATQFEPLAARSAFPCFDEPAFKATFIIKIIRDEQYTALSNMPKKSSVVLDDGLVQDEFSESVKMSTYLVAFIVGEMKNLSQDVNGTLVSIYAVPEKIGQVHYALETTVKLLEFFQNYFEIQYPLKKLDLVAIPDFEAGAMENWGLLTFREETLLYDSNTSSMADRKLVTKIIAHELAHQWFGNLVTMKWWNDLWLNEGFATFMEYFSLEKIFKELSSYEDFLDARFKTMKKDSLNSSHPISSSVQSSEQIEEMFDSLSYFKGSSLLLMLKTYLSEDVFQHAVVLYLHNHSYASIQSDDLWDSFNEVTNQTLDVKRMMKTWTLQKGFPLVTVQKKGKELFIQQERFFLNMKPEIQPSDTSYLWHIPLSYVTEGRNYSKYQSVSLLDKKSGVINLTEEVLWVKVNINMNGYYIVHYADDDWEALIHQLKINPYVLSDKDRANLINNIFELAGLGKVPLKRAFDLINYLGNENHTAPITEALFQTDLIYNLLEKLGYMDLASRLVTRVFKLLQNQIQQQTWTDEGTPSMRELRSALLEFACTHNLGNCSTTAMKLFDDWMASNGTQSLPTDVMTTVFKVGAKTDKGWSFLLGKYISIGSEAEKNKILEALASSEDVRKLYWLMKSSLNGDNFRTQKLSFIIRTVGRHFPGHLLAWDFVKENWNKLVQKFPLGSYTIQNIVAGSTYLFSTKTHLSEVQAFFENQSEATFRLRCVQEALEVIQLNIQWMEKNLKSLTWWL [Q9UIQ6]
[1]; [7]
  percentage of EdU-negative: 26.9 ± 1.8%
[1]; protein concentration 0.225 µM
  percentage of EdU-negative: 29.26 ± 0.17%
[2]; [7]
  percentage of EdU-negative: 4.48 ± 0.24%
[2]; protein concentration 0.225 µM
  percentage of EdU-negative: 11.1 ± 0.58%

## MAASRWARKAVVLLCASDLLLLLLLLPPPGSCAAEGSPGTPDESTPPPRKKKKDIRDYNDADMARLLEQWEKDDDIEEGDLPEHKRPSAPVDFSKIDPSKPESILKMTKKGKTLMMFVTVSGSPTEKETEEITSLWQGSLFNANYDVQRFIVGSDRAIFMLRDGSYAWEIKDFLVGQDRCADVTLEGQVYPGKGGGSKEKNKTKQDKGKKKKEGDLKSRSSKEENRAGNKREDL
[1]; [7]
  percentage of EdU-negative: 27.3 ± 3.2%
[1]; protein concentration 0.225 µM
  percentage of EdU-negative: 27.3 ± 1%
[2]; [7]
  percentage of EdU-negative: 5.03 ± 0.66%
[2]; protein concentration 0.225 µM
  percentage of EdU-negative: 11 ± 0.91%

## MTSKPHSDWIPYSVLDDEGRNLRQQKLDRQRALLEQKQKKKRQEPLMVQANADGRPRSRRARQSEEQAPLVESYLSSSGSTSYQVQEADSLASVQLGATRPTAPASAKRTKAAATAGGQGGAARKEKKGKHKGTSGPAALAEDKSEAQGPVQILTVGQSDHAQDAGETAAGGGERPSGQDLRATMQRKGISSSMSFDEDEEDEEENSSSSSQLNSNTRPSSATSRKSVREAASAPSPTAPEQPVDVEVQDLEEFALRPAPQGITIKCRITRDKKGMDRGMYPTYFLHLDREDGKKVFLLAGRKRKKSKTSNYLISVDPTDLSRGGDSYIGKLRSNLMGTKFTVYDNGVNPQKASSSTLESGTLRQELAAVCYETNVLGFKGPRKMSVIVPGMNMVHERVSIRPRNEHETLLARWQNKNTESIIELQNKTPVWNDDTQSYVLNFHGRVTQASVKNFQIIHGNDPDYIVMQFGRVAEDVFTMDYNYPLCALQAFAIALSSFDSKLACE
[1]; [10]
  percentage of EdU-negative: 24.8 ± 1.5%
[1]; [11]
  percentage of EdU-negative: 29.6 ± 0.96%
[2]; [10]
  percentage of EdU-negative: 4.99 ± 0.76%
[2]; [11]
  percentage of EdU-negative: 7.63 ± 0.81%

## MMWPMHTPLLLLTALMVAVAGSASAQSRTLAGGIHATDLNDKSVQCALDFAISEYNKVINKDEYYSRPLQVMAAYQQIVGGVNYYFNVKFGRTTCTKSQPNLDNCPFNDQPKLKEEEFCSFQINEVPWEDKISILNYKCRKV
[1]; [7]
  percentage of EdU-negative: 25.28 ± 0.24%
[1]; protein concentration 0.225 µM
  percentage of EdU-negative: 25.3 ± 2%
[2]; [7]
  percentage of EdU-negative: 4.35 ± 0.28%
[2]; protein concentration 0.225 µM
  percentage of EdU-negative: 6.17 ± 0.2%
